Results on one substance are retold here after patent US20250145729A1.

The target in this assay is cyno CD98hc (cynomolgus monkey). The experiment in a line: SPR (Biacore). A general note: Surface plasmon resonance follows binding to a sensor surface in real time, without labels.

As a reminder, the Kd is the constant that tells how readily two partners part at equilibrium. Low values mean higher affinity, high ones lower affinity. Regarding “LLB2.C.1 (from UniProt P0DOX5 233-449) (Fc fusion)”, the equilibrium dissociation constant (Kd) is 1.5 µM.
